From patent US20160215041A1

What was measured:
[1] = target: Anti-P. aeruginosa O6ad Fab, c-myc- and 6× His-tagged (human); experiment: cell-based or functional assay
[2] = target: Anti-P. aeruginosa O6ad scFv, c-myc- and 6× His-tagged (human); experiment: cell-based or functional assay
[3] = target: Human complement C1q (human) (UniProt P02745); experiment: C1q deposition ELISA, anti-tag IgG alone at 66.67 nM
[4] = target: Anti-P. aeruginosa O6ad Fab, c-myc- and 6× His-tagged (human); experiment: ELISA, rAb coated, anti-tag IgG titrated (FIG. 7)
[5] = target: Anti-P. aeruginosa O6ad scFv, c-myc- and 6× His-tagged (human); experiment: ELISA, rAb coated, anti-tag IgG titrated (FIG. 7)
[6] = target: Anti-P. aeruginosa O6ad Fab, c-myc- and 6× His-tagged (human); experiment: ELISA: anti-O6ad Fab coated, two-fold dilutions of anti-tag IgG, goat anti-mouse IgG-HRP
[7] = target: Anti-P. aeruginosa O6ad scFv, c-myc- and 6× His-tagged (human); experiment: ELISA: anti-O6ad scFv coated, two-fold dilutions of anti-tag IgG, goat anti-mouse IgG-HRP

UniProt P02745, sequence (P02745 23-245 limits assumed, chain 1 of 3): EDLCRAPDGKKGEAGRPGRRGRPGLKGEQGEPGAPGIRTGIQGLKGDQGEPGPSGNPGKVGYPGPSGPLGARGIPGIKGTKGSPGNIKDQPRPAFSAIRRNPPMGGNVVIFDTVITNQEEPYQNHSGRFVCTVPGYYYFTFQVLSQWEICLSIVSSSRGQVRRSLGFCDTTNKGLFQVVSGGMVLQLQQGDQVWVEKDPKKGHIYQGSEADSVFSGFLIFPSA
UniProt P02745, sequence (P02746 28-253 limits assumed, chain 2 of 3, further chain): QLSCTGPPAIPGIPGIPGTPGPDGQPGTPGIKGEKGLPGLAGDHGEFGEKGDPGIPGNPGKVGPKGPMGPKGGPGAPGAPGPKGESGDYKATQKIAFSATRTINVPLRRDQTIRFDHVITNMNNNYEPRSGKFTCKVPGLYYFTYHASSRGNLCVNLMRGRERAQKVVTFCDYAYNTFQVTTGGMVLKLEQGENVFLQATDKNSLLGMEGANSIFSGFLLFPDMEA
UniProt P02745, sequence (P02747 29-245 limits assumed, chain 3 of 3, further chain): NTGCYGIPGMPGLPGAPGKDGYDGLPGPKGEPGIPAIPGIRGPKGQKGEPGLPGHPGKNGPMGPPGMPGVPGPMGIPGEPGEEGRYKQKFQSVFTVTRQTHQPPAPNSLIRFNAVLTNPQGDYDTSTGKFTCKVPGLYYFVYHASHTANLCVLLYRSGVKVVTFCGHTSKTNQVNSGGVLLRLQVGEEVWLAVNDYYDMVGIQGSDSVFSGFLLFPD

Substance	% phagocytosed bacteria (P. aeruginosa O6ad, J774.1A) [1] [%]	fold increase of bacterial uptake over the control without antibodies, at 13.09 nM anti-tag IgG [1] [fold]	% phagocytosed bacteria (P. aeruginosa O6ad, J774.1A) [2] [%]	fold increase of bacterial uptake over the control without antibodies, at 13.09 nM anti-tag IgG [2] [fold]	fold C1q deposition relative to Penta-His [3] [fold]	fold phagocytosis relative to Fab-9E10 [1] [fold]	fold phagocytosis relative to scFv-9E10 [2] [fold]	fold binding relative to 9E10 [4] [fold]	fold binding relative to 9E10 [5] [fold]	EC50 (read off the curve) [6] [nM]	EC50 (read off the curve) [7] [nM]
Murine mAb 9E10 (anti-c-myc IgG1) from hybridoma 1-9E10.2 (ATCC CRL-1729) (antibody)	18.8	3.5	24.8	4.6	1.4	–	–	–	–	–	–
Anti-Penta-His IgG1 murine mAb (QIAgen) (antibody)	27	3.5	42	10.6	–	> 1.2	2	< 10	< 10	1	1
